Test results taken from patent US7232659.

Legend:
[1] = biological target: FPR-GFP fusion protein (human; Aequorea victoria), P21462; assay: flow cytometry, LRG assembly of 30 nM FPR-GFP on αβγ DCNi beads, ligand varied (FIG. 13B)
[2] = biological target: FPR-GFP fusion protein (human; Aequorea victoria), P21462; assay: Kd from competition on wild type FPR divided by EC50 of LRG assembly with FPR-GFP
[3] = biological target: T1, formyl peptide receptor (FPR), wild type, detergent-solubilized (human), P21462; assay: spectrofluorimetric competition with L^F for solubilized FPR, IC50 converted to Kd
T1 chain: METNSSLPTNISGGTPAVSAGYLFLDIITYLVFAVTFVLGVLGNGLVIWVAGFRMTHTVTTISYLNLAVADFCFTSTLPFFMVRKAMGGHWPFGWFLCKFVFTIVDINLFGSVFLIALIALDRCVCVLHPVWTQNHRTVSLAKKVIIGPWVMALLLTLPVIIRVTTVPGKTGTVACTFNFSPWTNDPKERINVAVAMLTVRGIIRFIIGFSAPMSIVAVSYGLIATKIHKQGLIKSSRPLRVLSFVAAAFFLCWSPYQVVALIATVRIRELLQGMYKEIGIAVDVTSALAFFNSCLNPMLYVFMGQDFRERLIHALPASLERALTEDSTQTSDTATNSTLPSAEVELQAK

EC50 [1]: 27 nM
ratio of Kd (for LR) to EC50 (for LRG formation) [2]: 2.8
Kd [3]: 75 nM
Binder: MLFF (modifications not checked) [fMLFF]
